This assay concerns the target biotinylated mouse Izumo1Cd4d3+4 (entire ectodomain, bait form) (mouse) (UniProt Q9D9J7). As to the kind of experiment: SPR. For orientation: In SPR one partner is held on a chip, and binding of the other changes the refractive index at the surface.
UniProt Q9D9J7, sequence (Q9D9J7 22-319): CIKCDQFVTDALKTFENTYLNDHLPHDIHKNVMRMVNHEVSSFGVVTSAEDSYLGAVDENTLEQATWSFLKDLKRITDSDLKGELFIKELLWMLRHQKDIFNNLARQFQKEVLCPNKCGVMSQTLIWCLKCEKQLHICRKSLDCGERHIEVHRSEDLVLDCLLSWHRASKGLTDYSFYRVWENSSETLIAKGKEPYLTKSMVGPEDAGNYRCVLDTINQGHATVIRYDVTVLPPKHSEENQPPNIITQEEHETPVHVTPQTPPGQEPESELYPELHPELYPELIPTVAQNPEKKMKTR

What is called Kd is the free concentration of one partner at which half of the binding sites on the other are occupied at equilibrium, for simple one-to-one binding. The substance “mouse JunoCd4d3+4-6His (purified soluble Juno ectodomain) (from UniProt Q9EQF4 20-222) (domain or fragment)” came in with an equilibrium dissociation constant (Kd) of 12 µM.

These data come from publication PMC3998876.
